The target in this experiment is T1, 人CD7 (human CD7 on the surface of Jurkat, Molt4, CCRF-CEM and Hut78 cells) (human, UniProt P09564 26-240).
T1 construct: whole, on cells; also called CD7抗原
T1 sequence (looked up): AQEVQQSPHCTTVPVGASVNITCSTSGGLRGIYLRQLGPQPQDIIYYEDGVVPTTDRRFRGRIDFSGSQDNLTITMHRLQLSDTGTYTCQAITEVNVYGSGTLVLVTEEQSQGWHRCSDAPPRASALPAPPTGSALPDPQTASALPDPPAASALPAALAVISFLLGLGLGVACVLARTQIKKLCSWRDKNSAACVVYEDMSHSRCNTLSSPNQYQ
Description: FACS, 0.15μg/100μl antibody on 2×10^5 Jurkat, Molt4, CEM and Hut78 cells (high in human CD7).

B1: 单克隆抗体HIT7 (CD7-HIT7, mouse anti-human CD7 monoclonal antibody) (antibody, V domains shown)
VH: QVQLQESGPGLVKPSQTVSLTCTVTGISITTGNYRWSWIRQFPGNKLEWIGYIYYSGIITYNPSRTSRTTITRDISKNQFFLEMNSLTAEDTATYYCARERGIYYDSLWYFDVWGAGTTVTVSS
VL: DIVLTQSPASLAVSLGQRATISCRASKSVSASGYSYMHWYQQKPGQPPKLLIYLASNLESGVPARFSGSGSGTDFTLNIHPVEEEDAVTYYCQHSRELPYTFGGGTKLEIKR
notes: also called 本发明单克隆抗体; 鼠抗人CD7单克隆抗体
For B1, the binding result is on record as “binds”.
